Ends that are not written are not given here.
Columns and labels:
[1] = molecular target: somatostatin receptors on GH4 pituitary cells; experiment: cell-based or functional assay
[2] = molecular target: somatostatin receptors on GH4 pituitary cells; experiment: displacement of 125I-somatostatin-14 from GH4 pituitary cells

| inhibition of TRH-stimulated cAMP in GH4 cells [1] | inhibition of VIP-stimulated cAMP in GH4 cells [1] | Kd [2] | Molecule |
| --- | --- | --- | --- |
| 10 nM | 50 % at 10^-6 M | 5 nM | somatostatin-14 peptide (from UniProt P61278 103-116) |
| 10 nM | 50 % at 10^-6 M | 5 nM | PCKNFFWKTFSSCK-NH2 (cysteine pairing not given here) [cortistatin-14 peptide] |
